In patent publication US11377503:
Substitutions are numbered along the chain they refer to.

Columns and labels:
[1] = target: T1, CD39 mutant 19 (human, UniProt P49961); assay: FACS
T1 chain: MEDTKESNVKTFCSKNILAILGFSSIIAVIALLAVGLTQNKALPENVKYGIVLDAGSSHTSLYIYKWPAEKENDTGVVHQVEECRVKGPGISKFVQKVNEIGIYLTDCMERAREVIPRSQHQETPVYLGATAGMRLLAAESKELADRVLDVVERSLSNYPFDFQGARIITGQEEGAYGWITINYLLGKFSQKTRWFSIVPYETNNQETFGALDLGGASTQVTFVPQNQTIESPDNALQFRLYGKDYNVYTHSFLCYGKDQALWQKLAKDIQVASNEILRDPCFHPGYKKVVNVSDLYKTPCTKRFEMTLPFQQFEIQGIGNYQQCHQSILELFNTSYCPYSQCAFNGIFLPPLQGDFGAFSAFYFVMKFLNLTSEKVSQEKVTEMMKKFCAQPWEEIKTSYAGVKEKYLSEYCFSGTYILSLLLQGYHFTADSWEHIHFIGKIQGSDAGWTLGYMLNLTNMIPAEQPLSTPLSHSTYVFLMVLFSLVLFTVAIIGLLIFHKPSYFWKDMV

[2] = target: T2, murine CD39 (CHO-moCD39) (mouse, UniProt P55772); assay: FACS
T2 chain: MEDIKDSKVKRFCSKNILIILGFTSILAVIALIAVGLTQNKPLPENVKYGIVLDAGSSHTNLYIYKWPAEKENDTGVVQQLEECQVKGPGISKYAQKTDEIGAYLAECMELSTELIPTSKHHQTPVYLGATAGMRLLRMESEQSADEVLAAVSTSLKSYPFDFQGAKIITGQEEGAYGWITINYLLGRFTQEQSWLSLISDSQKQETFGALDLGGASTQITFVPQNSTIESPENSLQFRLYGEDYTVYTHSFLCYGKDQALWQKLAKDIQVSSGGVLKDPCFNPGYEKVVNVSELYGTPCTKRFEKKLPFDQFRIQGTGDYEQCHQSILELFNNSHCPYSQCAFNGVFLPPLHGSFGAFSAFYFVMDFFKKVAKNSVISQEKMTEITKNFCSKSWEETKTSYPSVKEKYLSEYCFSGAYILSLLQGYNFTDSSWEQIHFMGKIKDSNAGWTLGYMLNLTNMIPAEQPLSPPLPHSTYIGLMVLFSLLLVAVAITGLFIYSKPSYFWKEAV

[3] = target: T3, CD39-L2 (ENTPD6) (human, UniProt O75354); assay: ELISA
T3 chain: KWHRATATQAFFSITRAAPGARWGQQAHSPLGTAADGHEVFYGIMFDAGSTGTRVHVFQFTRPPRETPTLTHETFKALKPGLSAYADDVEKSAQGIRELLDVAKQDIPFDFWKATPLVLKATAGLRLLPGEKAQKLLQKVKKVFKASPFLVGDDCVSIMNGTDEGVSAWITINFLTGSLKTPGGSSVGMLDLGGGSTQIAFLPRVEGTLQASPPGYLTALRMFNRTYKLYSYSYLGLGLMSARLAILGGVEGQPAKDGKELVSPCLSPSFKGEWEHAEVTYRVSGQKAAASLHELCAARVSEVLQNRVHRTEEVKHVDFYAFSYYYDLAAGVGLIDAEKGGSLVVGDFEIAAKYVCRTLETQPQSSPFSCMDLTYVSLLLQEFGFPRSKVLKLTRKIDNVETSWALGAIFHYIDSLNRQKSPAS

[4] = target: T4, CD39-L1 (ENTPD2) (human, UniProt Q9Y5L3); assay: ELISA
T4 chain: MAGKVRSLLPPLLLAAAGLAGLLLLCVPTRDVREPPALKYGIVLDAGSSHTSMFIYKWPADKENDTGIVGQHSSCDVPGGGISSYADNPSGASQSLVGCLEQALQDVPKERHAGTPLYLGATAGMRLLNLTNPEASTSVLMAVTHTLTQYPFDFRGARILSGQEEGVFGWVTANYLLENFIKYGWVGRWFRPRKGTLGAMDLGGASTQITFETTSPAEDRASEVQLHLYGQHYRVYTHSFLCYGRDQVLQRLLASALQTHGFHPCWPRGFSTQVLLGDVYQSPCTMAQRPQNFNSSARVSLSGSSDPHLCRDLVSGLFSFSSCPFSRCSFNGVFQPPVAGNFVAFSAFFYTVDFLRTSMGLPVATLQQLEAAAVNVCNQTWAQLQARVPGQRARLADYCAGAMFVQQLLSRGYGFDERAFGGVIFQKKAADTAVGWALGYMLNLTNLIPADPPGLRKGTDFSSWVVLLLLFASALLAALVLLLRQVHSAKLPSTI

[5] = target: T5, CD39-L4 (ENTPD5) (human, UniProt O75356); assay: ELISA
T5 chain: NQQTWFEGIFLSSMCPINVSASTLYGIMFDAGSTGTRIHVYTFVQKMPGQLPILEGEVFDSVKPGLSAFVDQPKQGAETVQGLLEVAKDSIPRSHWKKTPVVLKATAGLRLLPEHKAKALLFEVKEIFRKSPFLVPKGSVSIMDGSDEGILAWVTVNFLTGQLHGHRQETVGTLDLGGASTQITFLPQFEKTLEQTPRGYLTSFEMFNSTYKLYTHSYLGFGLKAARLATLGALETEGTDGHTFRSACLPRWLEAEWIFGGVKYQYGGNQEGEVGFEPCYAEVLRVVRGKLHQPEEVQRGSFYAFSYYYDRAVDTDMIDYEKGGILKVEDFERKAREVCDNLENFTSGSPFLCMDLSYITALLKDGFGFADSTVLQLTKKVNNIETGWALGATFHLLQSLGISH

[6] = target: T6, CD39-L3 (ENTPD3) (human, UniProt O75355); assay: ELISA
T6 chain: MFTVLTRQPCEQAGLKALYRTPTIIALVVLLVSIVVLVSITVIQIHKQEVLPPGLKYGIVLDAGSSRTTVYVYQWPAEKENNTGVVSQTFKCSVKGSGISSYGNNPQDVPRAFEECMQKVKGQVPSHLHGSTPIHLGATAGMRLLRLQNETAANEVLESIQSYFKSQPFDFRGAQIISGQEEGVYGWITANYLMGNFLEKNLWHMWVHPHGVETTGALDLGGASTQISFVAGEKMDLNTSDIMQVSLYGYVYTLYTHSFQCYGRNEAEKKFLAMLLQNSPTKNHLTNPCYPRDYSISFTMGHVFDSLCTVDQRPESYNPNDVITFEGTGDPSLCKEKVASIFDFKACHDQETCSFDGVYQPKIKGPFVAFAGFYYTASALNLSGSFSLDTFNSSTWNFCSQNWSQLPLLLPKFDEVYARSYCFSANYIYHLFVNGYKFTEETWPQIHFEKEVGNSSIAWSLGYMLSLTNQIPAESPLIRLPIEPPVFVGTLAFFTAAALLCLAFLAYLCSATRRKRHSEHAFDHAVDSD

[7] = target: T7, human CD39 (Ramos cells) (human, UniProt P49961); assay: FACS, Ramos cells, first experiment
T7 chain: T1 chain with A138R, A139M, K142E

[8] = target: T7, human CD39 (Ramos cells); assay: FACS, Ramos cells, second experiment

B1: I-394 (antibody, V domains shown)
VH: EVKLQQSGPELVKPGASVKMSCKASGYTFTDYNMHWVKQSPGRTLEWIGYIVPLNGGSTFNQKFKGRATLTVNTSSRTAYMELRSLTSEDSAAYYCARGGTRFAYWGQGTLVTVSA
VL: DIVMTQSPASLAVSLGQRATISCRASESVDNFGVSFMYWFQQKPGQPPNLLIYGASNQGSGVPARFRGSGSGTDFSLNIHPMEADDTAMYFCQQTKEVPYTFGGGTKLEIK
- binding result [1]: no binding
- binding result [2]: no binding
- binding result [3]: no binding
- binding result [4]: no binding
- binding result [5]: no binding
- binding result [6]: no binding
- EC50 [7]: 0.16 µg/mL
- EC50 [8]: 0.19 µg/mL
